{"source": "patent US20100311659A1", "key": {"[1]": {"test_system": "FVIII-4A2 (quadruple mutant combining the A2 mutations 409, 462, 507, 629)"}, "[2]": {"test_system": "T1, wild-type FVIII (recombinant human factor VIII with deletion of the B domain)", "T1 sequence": "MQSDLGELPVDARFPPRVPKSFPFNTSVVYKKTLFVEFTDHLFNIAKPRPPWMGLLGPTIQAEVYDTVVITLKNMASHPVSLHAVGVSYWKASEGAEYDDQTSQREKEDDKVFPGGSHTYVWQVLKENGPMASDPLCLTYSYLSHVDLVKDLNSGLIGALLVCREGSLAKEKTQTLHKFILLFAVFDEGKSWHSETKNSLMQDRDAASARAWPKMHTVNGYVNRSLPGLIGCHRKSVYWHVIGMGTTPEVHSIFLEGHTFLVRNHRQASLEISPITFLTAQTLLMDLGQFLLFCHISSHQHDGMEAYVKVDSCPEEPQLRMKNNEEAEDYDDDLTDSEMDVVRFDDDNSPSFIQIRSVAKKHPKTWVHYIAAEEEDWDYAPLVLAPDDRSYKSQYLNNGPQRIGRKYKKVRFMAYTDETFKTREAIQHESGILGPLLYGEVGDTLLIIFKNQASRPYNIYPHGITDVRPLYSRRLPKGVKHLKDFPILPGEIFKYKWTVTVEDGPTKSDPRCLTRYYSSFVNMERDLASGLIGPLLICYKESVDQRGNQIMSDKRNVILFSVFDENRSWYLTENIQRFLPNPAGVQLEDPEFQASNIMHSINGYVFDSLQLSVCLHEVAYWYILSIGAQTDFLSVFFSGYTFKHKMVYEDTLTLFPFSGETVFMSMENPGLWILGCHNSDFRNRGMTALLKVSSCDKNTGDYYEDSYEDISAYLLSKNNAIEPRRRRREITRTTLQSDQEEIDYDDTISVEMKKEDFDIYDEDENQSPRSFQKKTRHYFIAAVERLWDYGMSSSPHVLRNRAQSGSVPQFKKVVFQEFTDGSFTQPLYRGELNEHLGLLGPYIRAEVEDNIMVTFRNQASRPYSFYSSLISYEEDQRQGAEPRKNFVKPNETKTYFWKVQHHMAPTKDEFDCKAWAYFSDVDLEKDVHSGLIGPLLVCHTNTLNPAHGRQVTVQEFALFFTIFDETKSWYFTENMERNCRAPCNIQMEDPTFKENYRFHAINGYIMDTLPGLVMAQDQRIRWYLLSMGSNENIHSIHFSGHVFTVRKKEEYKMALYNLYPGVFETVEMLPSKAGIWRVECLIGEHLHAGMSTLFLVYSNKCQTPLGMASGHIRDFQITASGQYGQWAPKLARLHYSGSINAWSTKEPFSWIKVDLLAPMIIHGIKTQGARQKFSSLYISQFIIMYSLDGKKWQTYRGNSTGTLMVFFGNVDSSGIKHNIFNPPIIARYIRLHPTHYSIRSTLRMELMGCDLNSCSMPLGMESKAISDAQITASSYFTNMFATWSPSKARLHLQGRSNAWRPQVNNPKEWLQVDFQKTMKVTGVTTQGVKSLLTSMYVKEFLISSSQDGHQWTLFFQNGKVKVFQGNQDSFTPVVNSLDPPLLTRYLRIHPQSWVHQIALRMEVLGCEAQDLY"}}}
{"substance": "Thrombin", "values": [{"measurement": "activation by thrombin (FXa generation over time)", "setting": "[1]", "value": "FVIII-4A2 is identically recognized by thrombin as wild-type FVIII with a relative decrease of activity which might be caused by one of the four mutations"}, {"measurement": "activation by thrombin (FXa generation over time)", "setting": "[2]", "value": "FVIII-4A2 is identically recognized by thrombin as wild-type FVIII with a relative decrease of activity which might be caused by one of the four mutations"}]}
